These results are taken from paper doi:10.1101/464131, “Increased association between Epstein-Barr virus EBNA2 from type 2 strains and the transcriptional repressor BS69 restricts B cell growth” (bioRxiv, 2018).

As a reminder, the stoichiometry N is the number of molecules, sites or subunits per partner or assembly. Usually Kd stands for the constant that tells how readily two partners part at equilibrium.

T1: BS69 CC-MYND domain (amino acids 480-602) (human, UniProt Q15326-1 480-602)
T1 chain: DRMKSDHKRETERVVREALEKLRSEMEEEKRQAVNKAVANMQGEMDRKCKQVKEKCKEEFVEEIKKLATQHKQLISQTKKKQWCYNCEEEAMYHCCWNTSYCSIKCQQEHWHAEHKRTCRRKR

B1: BS69 CC-MYND domain (amino acids 480-602) (domain or fragment, human, UniProt Q15326-1 480-602, looked up)
chain: T1 chain
notes: BS69 (ZMYND11), human, C-terminal region with the coiled-coil and MYND domains, amino acids 480-602; canonical isoform 1 of 602 amino acids; Dimer by SEC-MALS; Amplified from pCI-BS69 and cloned into pET49b+; also called ZMYND11; source: E. coli Rosetta 2 (DE3) pLysS, purified (cobalt resin, 3C protease cleavage, Superdex 75); not shown: GST, N-terminal, cleaved; His6, N-terminal, cleaved
B2: type 2 EBNA2 polypeptide T2 EBNA2_(348-412) (domain or fragment)
chain: SMPQLSPVVSLHQGQGPENSPTPGPSTAGPVCRVTPSATPDISPIHEPESSDSEEPPFLFPSDWY
notes: pET47b+ construct; also called type 2 EBNA2_(348-412); source: E. coli Rosetta 2 (DE3) pLysS, purified (cobalt resin, 3C protease cleavage, Superdex 75); not shown: His6, N-terminal, cleaved
B3: type 2 EBNA2 motif 3 peptide T2 EBNA2_(412-422) (peptide)
peptide: YPPTLEPAELD
notes: source: synthetic peptide (Peptide Synthetics)
B4: type 2 EBNA2 polypeptide T2 EBNA2_(348-422) (domain or fragment)
chain: SMPQLSPVVSLHQGQGPENSPTPGPSTAGPVCRVTPSATPDISPIHEPESSDSEEPPFLFPSDWYPPTLEPAELD
notes: pET47b+ construct; Monomer by SEC-MALS; also called type 2 EBNA2_(348-422); source: E. coli Rosetta 2 (DE3) pLysS, purified (cobalt resin, 3C protease cleavage, Superdex 75); not shown: His6, N-terminal, cleaved
B5: EBNA2_(348-422) SD + m3 mt (domain or fragment)
chain: B4 chain with S62D, P67A, L69A, P71A
notes: EBNA2 of type 2 EBV (AG876), amino acids 348-422 with S409D and motif 3 (PTLEP 414-418) mutated to ATAEA; also called T2 EBNA2_(348-422) SD + motif 3 mt; double mutant type 2 EBNA2 polypeptide; source: E. coli Rosetta 2 (DE3) pLysS, purified (cobalt resin, 3C protease cleavage, Superdex 75); not shown: His6, N-terminal, cleaved
B6: T2 EBNA2_(348-422) motif 3 mt (domain or fragment)
chain: B4 chain with P67A, L69A, P71A
notes: EBNA2 of type 2 EBV (AG876), amino acids 348-422, motif 3 (PTLEP 414-418) mutated to ATAEA; source: E. coli Rosetta 2 (DE3) pLysS, purified (cobalt resin, 3C protease cleavage, Superdex 75); not shown: His6, N-terminal, cleaved
B7: T2 EBNA2_(348-422) SD mutant (domain or fragment)
chain: B4 chain with S62D
notes: EBNA2 of type 2 EBV (AG876), amino acids 348-422 with serine 409 changed to aspartate (the position that is 442 in type 1 EBNA2); text and methods print 409; source: E. coli Rosetta 2 (DE3) pLysS, purified (cobalt resin, 3C protease cleavage, Superdex 75); not shown: His6, N-terminal, cleaved
B8: type 2 EBNA2 motif 2 peptide (402-412) (peptide)
peptide: EPPFLFPSDWY
notes: as for B3
B9: type 1 EBNA2 polypeptide T1 EBNA2_(381-455) (domain or fragment)
chain: SMPELSPVLGLHQGQGAGDSPTPGPSNAAPVCRNSHTATPNVSPIHEPESHNSPEAPILFPDDWYPPSIDPADLD

Where a chain is given by its changes, count along the chain named. In names and notes the source's numbering stands.

Data set [1] deals with the molecule itself. Put plainly: SEC-MALS; individual proteins, 5 mg/ml, Shodex KW403-4F column, 25°C, 20 mM Tris-HCl, 100 mM NaCl, 1 mM TCEP, pH 7.5. In general terms: In gel filtration, larger molecules generally elute earlier.
The target of data set [2] is B1. The experiment in a line: ITC; EBNA2 polypeptide titrated into BS69CC-MYND (0.1 mM) in the cell, 19 x 2.0 μl injections, 25°C, 20 mM Tris-HCl, 100 mM NaCl, 1 mM TCEP, pH 7.5; one set of sites model; n calculated for monomeric proteins. The conditions noted are these: both partners purified.
Data set [3] addresses B1. The experiment in a line: ITC; EBNA2 peptide (1 mM) titrated into BS69CC-MYND (0.1 mM) in the cell, 13 injections, 25°C, 20 mM Tris-HCl, 100 mM NaCl, 1 mM TCEP, pH 7.5; one-site model with n fixed to 1. The conditions noted are these: both partners purified. In general terms: In ITC the heat of successive injections is recorded.
Data set [4] addresses T1, BS69 CC-MYND domain (amino acids …). The experiment in a line: ITC.
Data set [5] has as its target B1. The experiment in a line: ITC; EBNA2 polypeptide titrated into BS69CC-MYND (0.1 mM) in the cell, 29 x 1.3 μl injections, 25°C, 20 mM Tris-HCl, 100 mM NaCl, 1 mM TCEP, pH 7.5; two sets of sites (two event) model. The conditions noted are these: both partners purified.

B1: the “stoichiometry N” value in data set [1] worked out at 2.

With B2, in data set [2], the Kd was 1210 nM and the “stoichiometry N” value was 0.33 molar ratio EBNA2 : BS69CC-MYND monomer.

The molecule B3 yielded a Kd in data set [3] of 219000 nM.

The molecule B4 yielded a dissociation constant Kd in data set [4] of 1010 nM. Besides, in data set [5], the “dH (second binding event)” value was -1.59 kcal/mol. The “stoichiometry N” value in data set [2] is 0.15 molar ratio EBNA2 : BS69CC-MYND monomer.

For B5, in data set [5], the “dH (second binding event)” value was -9.62 kcal/mol and the “fold reduction of the affinity of the second binding event (KD2) against m11” value was approximately 2 fold.

Turning to B6, in data set [2], the “stoichiometry N” value is 0.3 molar ratio EBNA2 : BS69CC-MYND monomer.

As to B7, the “dH (second binding event)” value in data set [5] is -7.65 kcal/mol.

For B8, the Kd in data set [3] amounted to 176000 nM.

Take B9: in data set [4], binding was characterised by a dissociation constant (Kd) of 730 nM.
